This is an account of results in IntAct's records for PubMed 21119616.

B1: Retinoblastoma-associated protein (Homo sapiens), P06400 (parent)
chain: MPPKTPRKTAATAAAAAAEPPAPPPPPPPEEDPEQDSGPEDLPLVRLEFEETEEPDFTALCQKLKIPDHVRERAWLTWEKVSSVDGVLGGYIQKKKELWGICIFIAAVDLDEMSFTFTELQKNIEISVHKFFNLLKEIDTSTKVDNAMSRLLKKYDVLFALFSKLERTCELIYLTQPSSSISTEINSALVLKVSWITFLLAKGEVLQMEDDLVISFQLMLCVLDYFIKLSPPMLLKEPYKTAVIPINGSPRTPRRGQNRSARIAKQLENDTRIIEVLCKEHECNIDEVKNVYFKNFIPFMNSLGLVTSNGLPEVENLSKRYEEIYLKNKDLDARLFLDHDKTLQTDSIDSFETQRTPRKSNLDEEVNVIPPHTPVRTVMNTIQQLMMILNSASDQPSENLISYFNNCTVNPKESILKRVKDIGYIFKEKFAKAVGQGCVEIGSQRYKLGVRLYYRVMESMLKSEEERLSIQNFSKLLNDNIFHMSLLACALEVVMATYSRSTSQNLDSGTDLSFPWILNVLNLKAFDFYKVIESFIKAEGNLTREMIKHLERCEHRIMESLAWLSDSPLFDLIKQSKDREGPTDHLESACPLNLPLQNNHTAADMYLSPVRSPKKKGSTTRVNSTANAETQATSAFQTQKPLKSTSLSLFYKKVYRLAYLRLNTLCERLLSEHPELEHIIWTLFQHTLQNEYELMRDRHLDQIMMCSMYGICKVKNIDLKFKIIVTAYKDLPHAVQETFKRVLIKEEEYDSIIVFYNSVFMQRLKTNILQYASTRPPTLSPIPHIPRSPYKFPSSPLRIPGGNIYISPLKSPYKISEGLPTPTKMTPRSRILVSIGESFGTSEKFQKINQMVCNSDRVLKRSAEGSNPPKPLKKLRFDIEGSDEADGSKHLPGESKFQQKLAEMTSTRTRMQKQKMNDSMDTSNKEEK
partner: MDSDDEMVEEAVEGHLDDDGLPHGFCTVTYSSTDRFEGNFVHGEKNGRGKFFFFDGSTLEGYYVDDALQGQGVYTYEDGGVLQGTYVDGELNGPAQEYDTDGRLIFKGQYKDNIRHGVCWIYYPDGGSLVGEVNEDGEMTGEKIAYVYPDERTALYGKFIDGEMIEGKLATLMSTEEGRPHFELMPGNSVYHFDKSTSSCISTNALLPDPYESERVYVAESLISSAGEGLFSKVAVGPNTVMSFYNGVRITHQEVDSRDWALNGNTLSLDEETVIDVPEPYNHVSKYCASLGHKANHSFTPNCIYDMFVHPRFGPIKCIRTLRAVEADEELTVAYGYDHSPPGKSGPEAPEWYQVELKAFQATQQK

The variants in this test derive from B1. The note with it: with setd7_human SETD7, Q8WTS6.
In the case of K810R, the “effect of a mutation on the interaction” value is reported as “disrupting interaction”.
